These results are taken from article PMC12669751, “Immunodominant antibodies against hemagglutinin in ferrets following infection with 2018 to 2019 influenza vaccine strains” (NPJ Vaccines, 2025).

The assay concerns the target TX/50 egg-version rHA1 (Influenza A virus A/Texas/50/2012 …, UniProt R4L1D1, strain). Kind of assay: BLI. The following applies: one partner purified.

B1: monoclonal antibody FluA-20 (antibody, V domains shown)
VH: QVQLEESGPGLVKPSETLSLTCSVSGVSVTSDIYYWTWIRQPPGKGLEWIGYIFYNGDTNYNPSLKSRVTMSIDTSKNEFSLRLTSVTAADTAVYFCARGTEDLGYCSSGSCPNHWGQGTLVTVSS
VL: DIVMTQSPSSLSASIGDRVTITCRPSQNIRSFLNWFQHKPGKAPKLLIYAASNLQSGVPSRFSGSGSGTEFTLTIRSLQPEDFATYYCQQSYNTPPTFGQGTKVEIK
notes: also called FluA-20 mAb; pan-H3 anti-HA1 mAb; copies: 2 + 2
Consider B1, for which the binding result was “binds”.
